For this data set, the target named is GST-MSY3 phosphorylated in vitro by Akt (UniProt Q9JKB3). As to the kind of experiment: EMSA. The following applies: prior phosphorylation by Akt; binding reduced more than 50%; EMSA per earlier protocol (ref 16), 8% non-denaturing polyacrylamide gel; binding buffer, pH and temperature not given. Kinase pre-treatment: 10 mM MgCl2, 2 mM ….

Bounds are passed on as bounds.

Chain of GST-MSY3 phosphorylated in vitro by Akt (Q9JKB3 whole entry): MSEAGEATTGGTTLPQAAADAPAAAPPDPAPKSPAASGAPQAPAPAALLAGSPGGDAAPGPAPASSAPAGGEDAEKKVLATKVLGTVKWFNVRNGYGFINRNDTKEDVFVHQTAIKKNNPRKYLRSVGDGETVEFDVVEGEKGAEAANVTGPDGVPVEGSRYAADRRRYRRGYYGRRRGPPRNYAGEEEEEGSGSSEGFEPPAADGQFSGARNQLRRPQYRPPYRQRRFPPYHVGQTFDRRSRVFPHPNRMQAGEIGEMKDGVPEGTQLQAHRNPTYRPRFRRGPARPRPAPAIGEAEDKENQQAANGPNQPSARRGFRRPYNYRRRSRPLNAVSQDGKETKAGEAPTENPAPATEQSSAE

Consider “TCTTGATGTGCAGCAACAGCT (double strand) [MYOwt (myogHCE)]”, for which the binding signal (% of unphosphorylated GST-MSY3) was less than 50.
